According to patent publication US20260217813A1 (published 2026):
Where a chain is given by its changes, count along the chain named.

T1: IL-12 (Human IL12 (His Tag)), Sino Biological Cat. No. CT-050-H08H-20 (human, UniProt P29460 23-328; P29459 23-219)
T1 construct: Bought His-tagged p35/p40 heterodimer
T1 sequence (looked up) 1: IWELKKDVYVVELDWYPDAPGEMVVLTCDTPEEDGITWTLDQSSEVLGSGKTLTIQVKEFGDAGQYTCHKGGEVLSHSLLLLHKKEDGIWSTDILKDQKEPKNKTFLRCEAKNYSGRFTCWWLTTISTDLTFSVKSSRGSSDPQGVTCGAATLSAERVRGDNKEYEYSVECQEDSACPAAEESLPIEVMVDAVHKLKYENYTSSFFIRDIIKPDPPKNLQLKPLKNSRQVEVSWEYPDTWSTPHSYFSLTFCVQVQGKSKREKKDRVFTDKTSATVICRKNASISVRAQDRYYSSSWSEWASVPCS
T1 sequence (looked up) 2: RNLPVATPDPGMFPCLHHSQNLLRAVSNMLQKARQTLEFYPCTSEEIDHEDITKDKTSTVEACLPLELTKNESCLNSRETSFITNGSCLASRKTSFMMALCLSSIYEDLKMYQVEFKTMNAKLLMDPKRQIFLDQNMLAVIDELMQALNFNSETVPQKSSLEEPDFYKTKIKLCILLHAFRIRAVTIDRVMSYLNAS

B1: ustekinumab (trade name Stelara) (antibody, V domains shown)
VH: EVQLVQSGAEVKKPGESLKISCKGSGYSFTTYWLGWVRQMPGKGLDWIGIMSPVDSDIRYSPSFQGQVTMSVDKSITTAYLQWNSLKASDTAMYYCARRRPGQGYFDFWGQGTLVTVSS
VL: DIQMTQSPSSLSASVGDRVTITCRASQGISSWLAWYQQKPEKAPKSLIYAASSLQSGVPSRFSGSGSGTDFTLTISSLQPEDFATYYCQQYNIYPYTFGQGTKLEIK
B2: H5L10 (antibody, human IgG1, kappa, V domains shown)
VH: EVQLVQSGAEVKKPGESLKISCQSSGYSFTTYWIGWVRQMPGQGLEWIGIMSPVDSDIRYNPMFRGQVTMSVDKSSSTAYLQWSSLKASDTAMYYCARRRPGQGYFDFWGQGTMVTVSS
VL: EIVLTQSPATLSASPGERATISCRASQSVGSWLAWYQQKPGQAPRSLIYAASNLQSGIPARFSGSGSGTDFTLTISSLEPEDFAVYYCQQYNIYPYTFGQGTRLEIKR
notes: IgG1/kappa
B3: H5L11 (antibody, human IgG1, kappa, V domains shown)
VH: B2 VH
VL: B2 VL with G30S, A50S
notes: IgG1/kappa
B4: H5L14 (antibody, human IgG1, kappa, V domains shown)
VH: B2 VH
VL: B2 VL with G30S, Y96F
notes: IgG1/kappa
B5: H5L12 (antibody, human IgG1, kappa, V domains shown)
VH: B2 VH
VL: B2 VL with G30S, L54R
notes: IgG1/kappa

Biological target: T1, IL-12 (Human IL12 (His Tag)), Sino …
Experiment: FACS competition, IL-12-His 20 nM on 293T-IL-12RB1&IL-23R cells
Experimental: 200 μL of 1% PBSA was added into each sample, and the mixture was centrifuged at 700×g for 5 min to discard the supernatant. According to experiment design, correspondingly diluted antibody (highest final concentration of 30 μg/mL, 3-fold dilution, 8 concentrations in total) and human IL-12 (Sino Biological, Cat. No.: CT-050-H08H-20) (final concentration of 20 nM) were mixed at a ratio of 1:1, and a blank control was set. The mixture of antibody and human IL12 was incubated on ice for 30 min and then added to the cell precipitate at 100 μL/sample. The resulting mixture was well mixed and incubated on ice for 60 min. 200 μL of 1% PBSA was added, and the mixture was centrifuged at 700×g for 5 min to discard the supernatant, and then washed twice. Alexa Fluor® 488 anti-His tag antibody (Biolegend, Cat. No.: 652509) was diluted at a ratio of 1:400 and added to each tube at 100 μL. The mixture was well mixed and incubated on ice for 40 min in the absence of light. 200 μL of 1% PBSA was added, and the mixture was centrifuged at 700×g for 5 min to discard the supernatant, and then washed twice. 1% PBSA was added at 200 μL/tube, and the cells were resuspended and transferred to a flow cytometry tube for testing.

B1 and B2 are within 1.5-fold of each other in EC50: 0.377 µg/mL for the first, 0.331 µg/mL for the second.

B3 and B4 are within 1.5-fold of each other in EC50: 0.414 µg/mL for the first, 0.532 µg/mL for the second.

With B5 the EC50 was 0.317 µg/mL.

Biological target: T1, IL-12 (Human IL12 (His Tag)), Sino …
Experiment: FACS competition, IL12-His (40 nM mixed 1:1) on 293T-IL-12RB1&IL-23R cells
Experimental: 200 μL of 1% PBSA was added into each sample, and the mixture was centrifuged at 1200 rpm for 5 min to discard the supernatant. According to experiment design, correspondingly diluted antibody (highest final concentration of 60 μg/mL, 3-fold dilution, 8 concentrations in total) and IL12-His (Sino Biological, Cat. No.: CT-050-H08H-20) (40 nM) were mixed at a ratio of 1:1, and a blank control was set. The mixture of antibody and IL12 was incubated on ice for 30 min and then added to the cell precipitate at 100 μL/sample. The resulting mixture was well mixed and incubated on ice for 60 min. 200 μL of 1% PBSA was added, and the mixture was centrifuged at 1200 rpm for 5 min to discard the supernatant, and then washed twice. THETM His tag antibody (FITC) (Genscript, Cat. No.: A01620) was diluted at a ratio of 1:500 and added to each tube at 100 μL. The mixture was well mixed and incubated on ice for 40 min in the absence of light. 200 μL of 1% PBSA was added, and the mixture was centrifuged at 1200 rpm for 5 min to discard the supernatant, and then washed twice. 1% PBSA was added at 200 μL/tube, and the cells were resuspended and transferred to a flow cytometry tube for testing.

Work on B1 yielded an EC50 of 1.58 µg/mL.
